Tests used:
human fibrinogen (human) = human fibrinogen (human) (UniProt P02671)
human complement C3b [1] = biological target: human complement C3b (UniProt P01024); experiment: ELISA; conditions: C3b-coated wells, 50 nM Fg detected with peroxidase-conjugated anti-Fg antibody, read off a plot
human complement C3b [2] = biological target: human complement C3b (UniProt P01024); experiment: flow cytometry on bacteria; conditions: Alexa488-labeled Fg 60 µg/ml; Efb (mutants) 0.5 µM; serum-opsonized S. aureus; buffer control est. 65 MFI; parent: est. 1300; read off a plot

Sequence of UniProt P02671 (P02671 36-866, chain 1 of 3): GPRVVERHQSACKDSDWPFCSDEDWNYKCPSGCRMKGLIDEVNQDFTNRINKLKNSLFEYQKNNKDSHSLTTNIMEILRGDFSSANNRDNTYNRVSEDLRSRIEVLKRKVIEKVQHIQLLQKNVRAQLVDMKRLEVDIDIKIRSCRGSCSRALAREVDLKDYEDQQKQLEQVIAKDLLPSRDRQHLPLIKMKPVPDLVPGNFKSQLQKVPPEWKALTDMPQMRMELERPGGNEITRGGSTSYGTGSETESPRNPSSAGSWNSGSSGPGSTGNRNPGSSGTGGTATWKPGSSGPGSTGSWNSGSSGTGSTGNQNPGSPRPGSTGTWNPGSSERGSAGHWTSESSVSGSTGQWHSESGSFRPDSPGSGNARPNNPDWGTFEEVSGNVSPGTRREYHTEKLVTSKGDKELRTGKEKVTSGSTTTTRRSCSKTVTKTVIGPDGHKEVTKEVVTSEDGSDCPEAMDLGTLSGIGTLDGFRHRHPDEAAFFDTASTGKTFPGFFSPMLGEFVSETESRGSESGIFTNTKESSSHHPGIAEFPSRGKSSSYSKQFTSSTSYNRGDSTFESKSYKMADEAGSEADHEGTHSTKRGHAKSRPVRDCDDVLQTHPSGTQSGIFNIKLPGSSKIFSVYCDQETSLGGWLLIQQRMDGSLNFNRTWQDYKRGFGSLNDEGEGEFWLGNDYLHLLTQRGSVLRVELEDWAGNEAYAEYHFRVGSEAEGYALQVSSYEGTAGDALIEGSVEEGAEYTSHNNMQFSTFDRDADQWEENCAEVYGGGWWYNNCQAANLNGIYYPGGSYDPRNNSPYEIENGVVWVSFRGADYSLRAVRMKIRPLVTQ
Sequence of UniProt P02671 (P02675 45-491, chain 2 of 3, further chain): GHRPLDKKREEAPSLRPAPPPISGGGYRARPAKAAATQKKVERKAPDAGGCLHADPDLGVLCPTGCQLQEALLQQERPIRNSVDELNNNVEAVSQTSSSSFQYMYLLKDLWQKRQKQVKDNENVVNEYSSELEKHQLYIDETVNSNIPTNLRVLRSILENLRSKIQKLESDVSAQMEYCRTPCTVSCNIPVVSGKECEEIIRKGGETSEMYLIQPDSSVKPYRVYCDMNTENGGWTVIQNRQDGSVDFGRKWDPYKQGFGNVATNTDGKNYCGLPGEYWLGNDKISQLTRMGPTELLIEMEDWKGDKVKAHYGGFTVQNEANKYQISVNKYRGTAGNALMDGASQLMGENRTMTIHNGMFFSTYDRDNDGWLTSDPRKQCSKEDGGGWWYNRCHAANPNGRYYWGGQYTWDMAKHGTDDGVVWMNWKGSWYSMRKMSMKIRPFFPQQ
Sequence of UniProt P02671 (P02679 27-453, chain 3 of 3, further chain): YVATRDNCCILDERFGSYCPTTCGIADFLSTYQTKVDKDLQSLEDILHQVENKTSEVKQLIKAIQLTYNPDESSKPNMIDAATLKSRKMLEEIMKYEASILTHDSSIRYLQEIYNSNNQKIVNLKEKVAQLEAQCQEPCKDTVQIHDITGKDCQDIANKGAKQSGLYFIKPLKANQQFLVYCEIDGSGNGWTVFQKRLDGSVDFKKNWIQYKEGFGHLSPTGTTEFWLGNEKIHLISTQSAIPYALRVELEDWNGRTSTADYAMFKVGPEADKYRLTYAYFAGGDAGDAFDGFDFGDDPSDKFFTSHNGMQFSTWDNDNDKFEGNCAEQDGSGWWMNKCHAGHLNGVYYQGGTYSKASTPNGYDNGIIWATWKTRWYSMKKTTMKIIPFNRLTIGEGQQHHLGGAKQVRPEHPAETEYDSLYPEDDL

| Substance | inhibition of phagocytosis of fluorescent S. aureus by human neutrophils in 2.5% human plasma, dose response of Efb (needs the interaction with C3b as well) (human fibrinogen (human)) | response (human complement C3b [1]; Efb about 6 nM (fourth point, read from the x axis), parent: est. 0.93) | response (human complement C3b [1]; Efb about 25 nM (highest point, read from the x axis), parent: est. 0.91) | response (human complement C3b [2]) |
| --- | --- | --- | --- | --- |
| His-tagged Efb, wild type (from UniProt A6QG59 30-165) (natural protein) | 0.08 µM |  |  |  |
| GST-tagged full-length Extracellular fibrinogen binding protein (Efb), wild type (from UniProt A6QG59) R131E; N138E |  | 0.2 OD450 | 0.23 OD450 | 180 MFI |

Reference: publication PMC3861539
